In PMC5289633:

Molecular target: Bio-SAP97 (SAP97 with N-terminal tag for in vivo biotinylation) (UniProt Q62696)
Assay: pull-down; streptavidin-sepharose pull-down of biotin-tagged SAP97 or PSD-95 from Triton X-100 extracts (TNE buffer, pH 7.5, 120 mM NaCl, 4°C) of co-transfected HEK293 or HEK293T cells; western blot

Chain of UniProt Q62696 (Q62696 whole entry): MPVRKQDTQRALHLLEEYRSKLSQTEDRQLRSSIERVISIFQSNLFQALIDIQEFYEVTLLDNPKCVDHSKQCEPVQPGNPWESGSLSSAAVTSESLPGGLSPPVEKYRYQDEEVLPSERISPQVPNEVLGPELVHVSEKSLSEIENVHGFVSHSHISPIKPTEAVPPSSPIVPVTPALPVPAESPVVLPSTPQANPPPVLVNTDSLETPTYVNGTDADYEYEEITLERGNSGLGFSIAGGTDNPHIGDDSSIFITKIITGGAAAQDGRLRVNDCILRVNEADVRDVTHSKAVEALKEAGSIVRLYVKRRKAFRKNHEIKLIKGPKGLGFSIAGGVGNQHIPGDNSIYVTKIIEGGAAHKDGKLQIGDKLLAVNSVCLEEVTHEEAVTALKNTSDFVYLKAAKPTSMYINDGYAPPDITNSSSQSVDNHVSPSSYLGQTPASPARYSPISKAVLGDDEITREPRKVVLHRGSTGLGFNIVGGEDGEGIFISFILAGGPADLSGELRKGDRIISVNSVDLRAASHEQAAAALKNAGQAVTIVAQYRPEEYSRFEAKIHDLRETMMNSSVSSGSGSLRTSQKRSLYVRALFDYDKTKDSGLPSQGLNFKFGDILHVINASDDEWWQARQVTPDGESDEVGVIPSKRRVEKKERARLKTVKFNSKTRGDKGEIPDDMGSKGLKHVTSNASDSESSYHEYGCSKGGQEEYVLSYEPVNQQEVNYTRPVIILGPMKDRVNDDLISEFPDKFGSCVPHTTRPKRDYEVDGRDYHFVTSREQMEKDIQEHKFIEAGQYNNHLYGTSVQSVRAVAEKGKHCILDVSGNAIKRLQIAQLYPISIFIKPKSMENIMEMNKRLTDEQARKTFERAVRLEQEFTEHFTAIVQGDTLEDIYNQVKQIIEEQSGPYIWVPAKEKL

## N-terminally GFP-tagged GluA1 C893S mutant (receptor)
  percent decrease in association against wt GluA1: 60 to 70%
